# Tests used:
# [1] = biological target: MOD-5014 (FVIIa-CTP3, activated Factor VII-CTP-CTP-CTP) (human) (UniProt P08709); assay: cell-based or functional assay
# [2] = biological target: Tissue factor (TF), P13726; assay: cell-based or functional assay
# Tissue factor (TF), P13726, sequence (P13726 33-295): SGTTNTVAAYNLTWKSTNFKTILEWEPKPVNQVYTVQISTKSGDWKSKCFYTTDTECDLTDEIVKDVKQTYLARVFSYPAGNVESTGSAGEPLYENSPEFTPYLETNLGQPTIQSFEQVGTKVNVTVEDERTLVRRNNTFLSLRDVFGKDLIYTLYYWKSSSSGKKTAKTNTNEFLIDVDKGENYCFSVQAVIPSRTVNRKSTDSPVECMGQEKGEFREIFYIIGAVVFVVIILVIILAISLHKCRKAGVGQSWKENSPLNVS
# Tissue factor pathway inhibitor (TFPI), sequence (P10646 29-304 limits assumed): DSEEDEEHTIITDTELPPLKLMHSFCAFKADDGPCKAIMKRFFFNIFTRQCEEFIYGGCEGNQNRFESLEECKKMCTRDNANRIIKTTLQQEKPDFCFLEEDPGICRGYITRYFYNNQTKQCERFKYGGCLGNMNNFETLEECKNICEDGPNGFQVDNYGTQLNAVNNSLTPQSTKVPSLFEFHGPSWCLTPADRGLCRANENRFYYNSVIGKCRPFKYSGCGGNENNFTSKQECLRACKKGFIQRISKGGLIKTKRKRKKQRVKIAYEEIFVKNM
molecule,measurement,setting,value
Tissue factor pathway inhibitor (TFPI) (from UniProt P10646 29-304),"sensitivity of FVIIa/TF generation of FXa to TFPI inhibition, relative to MOD-5000",[1],124%
"MOD-5014 (FVIIa-CTP3; activated Factor VII-CTP-CTP-CTP), P08709 61-212 (enzyme) light: ANAFLEELRPGSLERECKEEQCSFEEAREIFKDAERTKLFWISYSDGDQCASSPCQNGGSCKDQLQSYICFCLPAFEGRNCETHKDDQLICVNENGGCEQYCSDHTGTKRSCRCHEGYSLLADGVSCTPTVEYPCGKIPILEKRNASKPQGR heavy: IVGGKVCPKGECPWQVLLLVNGAQLCGGTLINTIWVVSAAHCFDKIKNWRNLIAVLGEHDLSEHDGDEQSRRVAQVIIPSTYVPGTTNHDIALLRLHQPVVLTDHVVPLCLPERTFSERTLAFVRFSLVSGWGQLLDRGATALELMVLNVPRLMTQDCLQQSRKVGDSPNITEYMFCAGYSDGSKDSCKGDSGGPHATHYRGTWYLTGIVSWGQGCATVGHFGVYTRVSQYIEWLQKLMRSEPRPGVLLRAPFPSSSSKAPPPSLPSPSRLPGPSDTPILPQSSSSKAPPPSLPSPSRLPGPSDTPILPQSSSSKAPPPSLPSPSRLPGPSDTPILPQ",ETP (TG; MOD-5014 1.25 ug/ml + TF 0.5 pM; run 1),[2],264
same,ETP (TG; MOD-5014 1.25 ug/ml + TF 1 pM; run 1),[2],484
same,ETP (TG; MOD-5014 1.25 ug/ml + TF 2.5 pM; run 1),[2],1120
same,ETP (TG; MOD-5014 1.25 ug/ml + TF 5 pM; run 1),[2],1600
same,ETP (TG; MOD-5014 2.5 ug/ml + TF 0.5 pM; run 1),[2],245
same,ETP (TG; MOD-5014 2.5 ug/ml + TF 0.5 pM; run 2),[2],317
same,ETP (TG; MOD-5014 2.5 ug/ml + TF 1 pM; run 1),[2],448
same,ETP (TG; MOD-5014 2.5 ug/ml + TF 1 pM; run 2),[2],760
same,ETP (TG; MOD-5014 2.5 ug/ml + TF 2.5 pM; run 1),[2],1030
same,ETP (TG; MOD-5014 2.5 ug/ml + TF 2.5 pM; run 2),[2],1110
same,ETP (TG; MOD-5014 2.5 ug/ml + TF 5 pM; run 1),[2],1550
same,ETP (TG; MOD-5014 2.5 ug/ml + TF 5 pM; run 2),[2],1600
same,ETP (TG; MOD-5014 5 ug/ml + TF 0.5 pM; run 1),[2],344
same,ETP (TG; MOD-5014 5 ug/ml + TF 1 pM; run 1),[2],490
same,ETP (TG; MOD-5014 5 ug/ml + TF 2.5 pM; run 1),[2],982
same,ETP (TG; MOD-5014 5 ug/ml + TF 5 pM; run 1),[2],1510
same,ETP (TG; MOD-5014 10 ug/ml + TF 0.5 pM; run 2),[2],460
same,ETP (TG; MOD-5014 10 ug/ml + TF 1 pM; run 2),[2],754
same,ETP (TG; MOD-5014 10 ug/ml + TF 2.5 pM; run 2),[2],1060
same,ETP (TG; MOD-5014 10 ug/ml + TF 5 pM; run 2),[2],1600
same,"ETP; thrombin generation in severe hemophilia A pooled plasma, MOD-5014 5 ug/kg (FIG. 83), TF 0.5 pM, run #2",[2],354
same,"ETP; thrombin generation in severe hemophilia A pooled plasma, MOD-5014 5 ug/kg (FIG. 83), TF 1 pM, run #2",[2],754
same,"ETP; thrombin generation in severe hemophilia A pooled plasma, MOD-5014 5 ug/kg (FIG. 83), TF 2.5 pM, run #2",[2],1010
same,"ETP; thrombin generation in severe hemophilia A pooled plasma, MOD-5014 5 ug/kg (FIG. 83), TF 5 pM, run #2",[2],1530
same,Lag time (TG; MOD-5014 1.25 ug/ml + TF 0.5 pM; run 1),[2],4.67 min
same,Lag time (TG; MOD-5014 1.25 ug/ml + TF 1 pM; run 1),[2],2.67 min
same,Lag time (TG; MOD-5014 1.25 ug/ml + TF 2.5 pM; run 1),[2],2.33 min
same,Lag time (TG; MOD-5014 1.25 ug/ml + TF 5 pM; run 1),[2],1.33 min
same,Lag time (TG; MOD-5014 2.5 ug/ml + TF 0.5 pM; run 1),[2],6.67 min
same,Lag time (TG; MOD-5014 2.5 ug/ml + TF 1 pM; run 1),[2],3 min
same,Lag time (TG; MOD-5014 2.5 ug/ml + TF 1 pM; run 2),[2],3.33 min
same,Lag time (TG; MOD-5014 2.5 ug/ml + TF 2.5 pM; run 1),[2],2.63 min
same,Lag time (TG; MOD-5014 2.5 ug/ml + TF 2.5 pM; run 2),[2],2.67 min
same,Lag time (TG; MOD-5014 2.5 ug/ml + TF 5 pM; run 1),[2],3.67 min
same,Lag time (TG; MOD-5014 2.5 ug/ml + TF 5 pM; run 2),[2],1.67 min
same,Lag time (TG; MOD-5014 5 ug/ml + TF 0.5 pM; run 1),[2],5.67 min
same,Lag time (TG; MOD-5014 5 ug/ml + TF 1 pM; run 1),[2],3 min
same,Lag time (TG; MOD-5014 5 ug/ml + TF 2.5 pM; run 1),[2],3 min
same,Lag time (TG; MOD-5014 5 ug/ml + TF 5 pM; run 1),[2],1.67 min
same,Lag time (TG; MOD-5014 10 ug/ml + TF 0.5 pM; run 2),[2],8.67 min
same,Lag time (TG; MOD-5014 10 ug/ml + TF 2.5 pM; run 2),[2],3 min
same,Lag time (TG; MOD-5014 10 ug/ml + TF 5 pM; run 2),[2],1.67 min
same,"Lag time; thrombin generation in severe hemophilia A pooled plasma, MOD-5014 5 ug/kg (FIG. 83), TF 0.5 pM, run #2",[2],7
same,"Lag time; thrombin generation in severe hemophilia A pooled plasma, MOD-5014 5 ug/kg (FIG. 83), TF 1 pM, run #2",[2],3.67
same,"Lag time; thrombin generation in severe hemophilia A pooled plasma, MOD-5014 5 ug/kg (FIG. 83), TF 2.5 pM, run #2",[2],2.67
same,"Lag time; thrombin generation in severe hemophilia A pooled plasma, MOD-5014 5 ug/kg (FIG. 83), TF 5 pM, run #2",[2],2
same,Peak (TG; MOD-5014 1.25 ug/ml + TF 0.5 pM; run 1),[2],9.04
same,Peak (TG; MOD-5014 1.25 ug/ml + TF 1 pM; run 1),[2],27.4
same,Peak (TG; MOD-5014 1.25 ug/ml + TF 2.5 pM; run 1),[2],99.1
same,Peak (TG; MOD-5014 1.25 ug/ml + TF 5 pM; run 1),[2],231
same,Peak (TG; MOD-5014 2.5 ug/ml + TF 0.5 pM; run 1),[2],10.3
same,Peak (TG; MOD-5014 2.5 ug/ml + TF 0.5 pM; run 2),[2],11.2
same,Peak (TG; MOD-5014 2.5 ug/ml + TF 1 pM; run 1),[2],22.6
same,Peak (TG; MOD-5014 2.5 ug/ml + TF 1 pM; run 2),[2],30.4
same,Peak (TG; MOD-5014 2.5 ug/ml + TF 2.5 pM; run 1),[2],93.2
same,Peak (TG; MOD-5014 2.5 ug/ml + TF 2.5 pM; run 2),[2],105
same,Peak (TG; MOD-5014 2.5 ug/ml + TF 5 pM; run 1),[2],241
same,Peak (TG; MOD-5014 2.5 ug/ml + TF 5 pM; run 2),[2],245
same,Peak (TG; MOD-5014 5 ug/ml + TF 0.5 pM; run 1),[2],13.2
same,Peak (TG; MOD-5014 5 ug/ml + TF 1 pM; run 1),[2],28.3
same,Peak (TG; MOD-5014 5 ug/ml + TF 2.5 pM; run 1),[2],94.2
same,Peak (TG; MOD-5014 5 ug/ml + TF 5 pM; run 1),[2],261
same,Peak (TG; MOD-5014 10 ug/ml + TF 1 pM; run 2),[2],32.2
same,Peak (TG; MOD-5014 10 ug/ml + TF 2.5 pM; run 2),[2],92.2
same,Peak (TG; MOD-5014 10 ug/ml + TF 5 pM; run 2),[2],236
same,"Peak; thrombin generation in severe hemophilia A pooled plasma, MOD-5014 5 ug/kg (FIG. 83), TF 0.5 pM, run #2",[2],14.3
same,"Peak; thrombin generation in severe hemophilia A pooled plasma, MOD-5014 5 ug/kg (FIG. 83), TF 1 pM, run #2",[2],28.6
same,"Peak; thrombin generation in severe hemophilia A pooled plasma, MOD-5014 5 ug/kg (FIG. 83), TF 2.5 pM, run #2",[2],104
same,"Peak; thrombin generation in severe hemophilia A pooled plasma, MOD-5014 5 ug/kg (FIG. 83), TF 5 pM, run #2",[2],254
same,StartTail (TG; MOD-5014 1.25 ug/ml + TF 0.5 pM; run 1),[2],75
same,StartTail (TG; MOD-5014 1.25 ug/ml + TF 1 pM; run 1),[2],40
same,StartTail (TG; MOD-5014 1.25 ug/ml + TF 2.5 pM; run 1),[2],33
same,StartTail (TG; MOD-5014 1.25 ug/ml + TF 5 pM; run 1),[2],25
same,StartTail (TG; MOD-5014 2.5 ug/ml + TF 0.5 pM; run 1),[2],64
same,StartTail (TG; MOD-5014 2.5 ug/ml + TF 0.5 pM; run 2),[2],75
same,StartTail (TG; MOD-5014 2.5 ug/ml + TF 1 pM; run 1),[2],56
same,StartTail (TG; MOD-5014 2.5 ug/ml + TF 2.5 pM; run 1),[2],34
same,StartTail (TG; MOD-5014 2.5 ug/ml + TF 2.5 pM; run 2),[2],31
same,StartTail (TG; MOD-5014 2.5 ug/ml + TF 5 pM; run 1),[2],23
same,StartTail (TG; MOD-5014 2.5 ug/ml + TF 5 pM; run 2),[2],24
same,StartTail (TG; MOD-5014 5 ug/ml + TF 0.5 pM; run 1),[2],75
same,StartTail (TG; MOD-5014 5 ug/ml + TF 1 pM; run 1),[2],50
same,StartTail (TG; MOD-5014 5 ug/ml + TF 2.5 pM; run 1),[2],38
same,StartTail (TG; MOD-5014 10 ug/ml + TF 0.5 pM; run 2),[2],72
same,StartTail (TG; MOD-5014 10 ug/ml + TF 2.5 pM; run 2),[2],34
same,StartTail (TG; MOD-5014 10 ug/ml + TF 5 pM; run 2),[2],25
same,"StartTail; thrombin generation in severe hemophilia A pooled plasma, MOD-5014 5 ug/kg (FIG. 83), TF 1 pM, run #2",[2],69
same,"StartTail; thrombin generation in severe hemophilia A pooled plasma, MOD-5014 5 ug/kg (FIG. 83), TF 2.5 pM, run #2",[2],30
same,"StartTail; thrombin generation in severe hemophilia A pooled plasma, MOD-5014 5 ug/kg (FIG. 83), TF 5 pM, run #2",[2],23
same,tt Peak (TG; MOD-5014 1.25 ug/ml + TF 0.5 pM; run 1),[2],22.3
same,tt Peak (TG; MOD-5014 1.25 ug/ml + TF 1 pM; run 1),[2],10.3
same,tt Peak (TG; MOD-5014 1.25 ug/ml + TF 2.5 pM; run 1),[2],8
same,tt Peak (TG; MOD-5014 1.25 ug/ml + TF 5 pM; run 1),[2],4.67
same,tt Peak (TG; MOD-5014 2.5 ug/ml + TF 0.5 pM; run 1),[2],22
same,tt Peak (TG; MOD-5014 2.5 ug/ml + TF 2.5 pM; run 1),[2],8.35
same,tt Peak (TG; MOD-5014 2.5 ug/ml + TF 2.5 pM; run 2),[2],8.33
same,tt Peak (TG; MOD-5014 2.5 ug/ml + TF 5 pM; run 2),[2],4.67
same,tt Peak (TG; MOD-5014 5 ug/ml + TF 0.5 pM; run 1),[2],21.3
same,tt Peak (TG; MOD-5014 5 ug/ml + TF 1 pM; run 1),[2],10.7
same,tt Peak (TG; MOD-5014 5 ug/ml + TF 2.5 pM; run 1),[2],8.33
same,tt Peak (TG; MOD-5014 5 ug/ml + TF 5 pM; run 1),[2],4.67
same,tt Peak (TG; MOD-5014 10 ug/ml + TF 1 pM; run 2),[2],33.7
same,tt Peak (TG; MOD-5014 10 ug/ml + TF 2.5 pM; run 2),[2],8.67
same,"tt Peak; thrombin generation in severe hemophilia A pooled plasma, MOD-5014 5 ug/kg (FIG. 83), TF 0.5 pM, run #2",[2],21.3
same,"tt Peak; thrombin generation in severe hemophilia A pooled plasma, MOD-5014 5 ug/kg (FIG. 83), TF 1 pM, run #2",[2],12.3
same,"tt Peak; thrombin generation in severe hemophilia A pooled plasma, MOD-5014 5 ug/kg (FIG. 83), TF 2.5 pM, run #2",[2],7.67
same,"tt Peak; thrombin generation in severe hemophilia A pooled plasma, MOD-5014 5 ug/kg (FIG. 83), TF 5 pM, run #2",[2],4.67
